The values that follow come from the Immune Epitope Database (IEDB).

Some results are limits rather than exact numbers.

The target in assay [1] is HLA-B*51:01. As to the kind of experiment: IEDB peptide-MHC binding, purified MHC/competitive/fluorescence; filed as Kd, often an IC50 or EC50 that approximates it; ≥ and ≤ were set here for values at or beyond the usual limits of such assays.
Assay [2] concerns the target HLA-B*40:01. The description is as above. Particulars: source organism: Giardia lamblia ATCC 50803.
In assay [3] the target is HLA-B*58:01. The description is as above. Particulars: source organism: Giardia lamblia ATCC 50803.
The target of assay [4] is HLA-A*01:01. The description is as above. As to conditions: source organism: Giardia lamblia ATCC 50803.
In assay [5] the target is HLA-B*08:01. Described as above. As to conditions: source organism: Giardia lamblia ATCC 50803.
For assay [6], the target named is HLA-C*14:02. The description is as above. As to conditions: source organism: Giardia lamblia ATCC 50803.
Assay [7] has as its target HLA-B*07:02. Described as above. Particulars: source organism: Giardia lamblia ATCC 50803.
Assay [8] has as its target HLA-B*83:01. Described as above. As to conditions: source organism: Giardia lamblia ATCC 50803.
In assay [9] the target is HLA-B*27:05. Described as above. Particulars: source organism: Giardia lamblia ATCC 50803.
The target in assay [10] is HLA-B*44:02. The assay is described as above. Particulars: source organism: Giardia lamblia ATCC 50803.
In assay [11] the target is HLA-A*11:01. The assay is described as above. As to conditions: source organism: Giardia lamblia ATCC 50803.
Assay [12] concerns the target HLA-A*68:23. The description is as above. Particulars: source organism: Giardia lamblia ATCC 50803.
Assay [13] addresses HLA-A*30:02. The assay is described as above. Particulars: source organism: Giardia lamblia ATCC 50803.
The target in assay [14] is HLA-B*15:42. The description is as above. Particulars: source organism: Giardia lamblia ATCC 50803.
The target of assay [15] is HLA-B*14:02. The description is as above. As to conditions: source organism: Giardia lamblia ATCC 50803.
The target of assay [16] is HLA-B*53:01. The description is as above. As to conditions: source organism: Giardia lamblia ATCC 50803.
The target of assay [17] is HLA-B*45:06. The description is as above. As to conditions: source organism: Giardia lamblia ATCC 50803.
For assay [18], the target named is HLA-B*18:01. As to the kind of experiment: IEDB peptide-MHC binding, purified MHC/direct/fluorescence; filed as Kd, often an IC50 or EC50 that approximates it; ≥ and ≤ were set here for values at or beyond the usual limits of such assays. As to conditions: source organism: Giardia lamblia ATCC 50803.
In assay [19] the target is HLA-A*29:02. The description is as above. As to conditions: source organism: Giardia lamblia ATCC 50803.
Assay [20] concerns the target HLA-B*57:01. Described as above. Particulars: source organism: Giardia lamblia ATCC 50803.
For assay [21], the target named is HLA-A*03:01. The description is as above. As to conditions: source organism: Giardia lamblia ATCC 50803.
The target of assay [22] is HLA-C*12:03. The description is as above. Particulars: source organism: Giardia lamblia ATCC 50803.
For assay [23], the target named is HLA-B*27:03. The assay is described as above. As to conditions: source organism: Giardia lamblia ATCC 50803.
In assay [24] the target is HLA-C*05:01. The description is as above. As to conditions: source organism: Giardia lamblia ATCC 50803.
Assay [25] has as its target HLA-A*24:03. The description is as above. Particulars: source organism: Giardia lamblia ATCC 50803.
Assay [26] addresses HLA-A*66:01. The assay is described as above. Particulars: source organism: Giardia lamblia ATCC 50803.
The target of assay [27] is HLA-A*23:01. Described as above. As to conditions: source organism: Giardia lamblia ATCC 50803.
Assay [28] addresses HLA-A*68:02. Described as above. As to conditions: source organism: Giardia lamblia ATCC 50803.
For assay [29], the target named is HLA-B*39:01. As to the kind of experiment: IEDB peptide-MHC binding, purified MHC/competitive/fluorescence; filed as Kd, often an IC50 or EC50 that approximates it; ≥ and ≤ were set here for values at or beyond the usual limits of such assays. Particulars: source organism: Plesiomonas shigelloides.
Assay [30] concerns the target HLA-A*29:02. Described as above. Particulars: source organism: Plesiomonas shigelloides.
The target of assay [31] is HLA-A*02:16. The assay is described as above. As to conditions: source organism: Plesiomonas shigelloides.
The target in assay [32] is HLA-B*57:01. Described as above. Particulars: source organism: Plesiomonas shigelloides.
For assay [33], the target named is HLA-A*69:01. The assay is described as above. Particulars: source organism: Plesiomonas shigelloides.
In assay [34] the target is HLA-A*02:19. Described as above. As to conditions: source organism: Plesiomonas shigelloides.
Assay [35] has as its target HLA-B*27:03. The description is as above. Particulars: source organism: Plesiomonas shigelloides.
The target in assay [36] is HLA-A*02:03. The description is as above. Particulars: source organism: Plesiomonas shigelloides.
Assay [37] concerns the target HLA-A*02:01. The assay is described as above. Particulars: source organism: Plesiomonas shigelloides.
The target of assay [38] is HLA-A*80:01. Described as above. Particulars: source organism: Plesiomonas shigelloides.
Assay [39] addresses HLA-A*24:03. The description is as above. Particulars: source organism: Plesiomonas shigelloides.
The target in assay [40] is HLA-A*02:12. The description is as above. As to conditions: source organism: Plesiomonas shigelloides.
The target of assay [41] is HLA-A*26:01. Described as above. As to conditions: source organism: Plesiomonas shigelloides.
The target in assay [42] is HLA-A*23:01. Described as above. As to conditions: source organism: Plesiomonas shigelloides.
Assay [43] deals with HLA-B*46:01. The description is as above. Particulars: source organism: Plesiomonas shigelloides.
In assay [44] the target is HLA-A*68:02. Described as above. As to conditions: source organism: Plesiomonas shigelloides.

What is called Kd is the equilibrium constant for the complex coming apart. For MTYLDGHPV, the Kd was no less than 5 µM in assay [1] (source organism: Giardia lamblia ATCC 50803); no less than 5 µM in [2]; no less than 5 µM in assay [3]; no less than 5 µM in assay [4]; no less than 5 µM in [5]; 0.0303 µM in [6]. Besides, the Kd was no less than 5 µM in assay [7]; no less than 5 µM in [8]; no less than 5 µM in assay [9]; no less than 5 µM in assay [10]; 0.138 µM in assay [11]; no more than 0.0001 µM in [12]. Also, the Kd was no less than 5 µM in assay [13]; no less than 5 µM in assay [14]; no less than 5 µM in assay [15]; no less than 5 µM in assay [16]; no less than 5 µM in [17]; no less than 20 µM in assay [18]. Moreover, the equilibrium dissociation constant (Kd) in assay [19] is 0.006 µM; in assay [20], no less than 20 µM; in [21], no less than 20 µM; in assay [22], 0.153 µM; in [23] it was no less than 20 µM; in [24] it was no less than 20 µM. Further, the Kd in assay [25] is no less than 20 µM; in assay [26], 0.134 µM; in assay [27], no less than 20 µM; in assay [28], no more than 0.001 µM.

Turning to LLFRMILNY, the Kd in [1] (source organism: Plesiomonas shigelloides) was no less than 20 µM; in [29] it was no less than 20 µM; in assay [30], 0.005 µM; in assay [31] it was no less than 20 µM; in [32] it was no less than 20 µM; in assay [33], no less than 20 µM. The Kd in assay [34] is no less than 20 µM; in assay [35], no less than 20 µM; in assay [36], no less than 20 µM; in assay [37] it was no less than 20 µM; in [38], 0.0259 µM; in assay [39], no less than 20 µM. Moreover, the Kd in [40], in assay [41], in assay [42], in [43] and in [44] was no less than 20 µM in each case.
